What was measured:
Assay type in all cases: physicochemical
[1] = Elution of Re-188-RC-160 from C18 SepPak columns (step-gradient of acidified ethanol) after adding post-labeling compounds
[2] = Post-labeling stability of radiolabeled RC-160 (uncoupling of isotope) by TLC and RP-HPLC
Procedure: (§1) Radiolabeling kits were prepared using aseptic techniques, with each kit prepared in a 10 ml serum vial using a 2 ml liquid fill. The liquid fill contained 200 μg of RC-160 peptide in 45 mM sodium potassium tartrate, 10 mM potassium hydrogen phthalate buffer, pH 5.0, in 5 mM stannous tartrate with 1% maltose added as a freeze-drying excipient. Each kit contained a maximum of 1.19 μg of tin. After filling, the vials were lyophilized, the head space gas filled with nitrogen, and the vials stoppered and crimped. Lyophilized vials were then stored refrigerated at 2-80C. To label a kit, 4-5 ml of 188Re-perrhenate solution containing 10-100 mCi was added to the kits, and the kits then heated in a boiling water bath for 30-45 minutes. Following a brief cooling period, 2 ml of ascorbic acid for Injection, U.S.P., was added to the labeled kit through a 0.22 micron filter. Two types of parenteral ascorbate were used with similar results, Ascorbic Acid for Injection, U.S.P., 500 mg/2 ml, and Ascorvit™ (a preparation of ascorbate) 100 mg (Jenapharm, Germany). In this study, RC-160 was radiolabeled at pH 5.0 for 30 minutes at 90° C. and ascorbate was added postlabeling. The temperature effect is shown in FIGS. 2A and 2B: 19 minutes for 37° C. and 21 minutes for 900C. Also shown in FIG. 1B is an elution profile of Re-188-RC 160 from a C18 column using a step-gradient of acidified ethenol. […] FIG. 6. […] FIG. 7 and FIGS. 1A and 1B. […] Briefly, aliquots of 100 μl cysteine dissolved in phosphate buffer saline (pH 7.4 with 1 M NaOH) were diluted in separate microfuge tubes to result in a doubling dilution. 100 μl of Re188-RC-160 was added to each tube and mixed by inversion. The samples were incubated at 45 minutes at 37° C. or 90° C. A 10 μl aliquot of each sample was then spotted on heat-treated ITLC strip and chromatographed in PBS, pH 7.4 until the solvent was 0.5 cm from the strip top. The amount of displacement was expressed as % of total radioactivity at the solvent front. The results for two experiments conducted respectively at 37° and 90° C. are shown at FIG. 3. In a related manner, comparative biodistribution profiles of Re-188-RC-160 at 2 hours post injection into the tail vein of adult, female BALB/c mice (≈25 g weight) (n≧5/group) with each animal receiving 0.2 ml containing approximately 4 μCi. Selected organs as shown in FIG. 4 were resected and weighed and the associated radioactivity was determined as a percentage of injected dose pr gram of tissue. The percent dose from blood, bone and muscle was calculated assuming 7, 8.2 and 40% of total body weight for these tissues. 37° C. and 90° C. were the two temperatures at which radio labeling was performed.

[3] = Cysteine displacement of Re-188 from Re-188-RC-160 (ITLC); conditions: addition of the ascorbate post-labeling
Procedure: Radiolabeling kits were prepared using aseptic techniques, with each kit prepared in a 10 ml serum vial using a 2 ml liquid fill. The liquid fill contained 200 μg of RC-160 peptide in 45 mM sodium potassium tartrate, 10 mM potassium hydrogen phthalate buffer, pH 5.0, in 5 mM stannous tartrate with 1% maltose added as a freeze-drying excipient. Each kit contained a maximum of 1.19 μg of tin. After filling, the vials were lyophilized, the head space gas filled with nitrogen, and the vials stoppered and crimped. Lyophilized vials were then stored refrigerated at 2-80C. To label a kit, 4-5 ml of 188Re-perrhenate solution containing 10-100 mCi was added to the kits, and the kits then heated in a boiling water bath for 30-45 minutes. Following a brief cooling period, 2 ml of ascorbic acid for Injection, U.S.P., was added to the labeled kit through a 0.22 micron filter. […] The amount of displacement was expressed as % of total radioactivity at the solvent front. […] Selected organs as shown in FIG. 4 were resected and weighed and the associated radioactivity was determined as a percentage of injected dose pr gram of tissue. The percent dose from blood, bone and muscle was calculated assuming 7, 8.2 and 40% of total body weight for these tissues. […]

[4] = Labeling efficiency of Re-188-RC-160 with ascorbic acid present during labeling (C18 SepPak, RP-HPLC, TLC)
Text: The results obtained by analytical RP-HPLC were confirmed by TLC studies and by isocratic elutions from C-18 SepPak columns. […] The RP-HPLC results were confirmed by TLC. […] The addition of ascorbate, or ascorbate/sulfite solutions, maximized the reduction of the peptide RC-160, which is present in excess, without compromising ^188Re-RC-160. The radiolabeling kit could be formulated with an excess of stannous ions and RC-160 to accommodate a variety of labeling situations. In the presence of ^188Re, the RC-160 and stannous ions interact to result in what is believed to be metal-cyclized ^188Re-RC-160. […] Since ^188Re is produced essentially carrier-free from a 188W/^188Re generator, it is hypothesized that excess stannous ions will reduce the RC-160 not complexed to ^188Re. […] The net result is a stable radiolabeled peptide with a very high specific activity.

[5] = Elution of Re-188-RC-160 from C18 SepPak columns (step-gradient of acidified ethanol) after adding post-labeling compounds; remark: listed apart in the source
Procedure: FIG. 1B is an elution profile of Re-188-RC-160 from a C18-SepPak column using a step-gradient of acidified ethanol.
as §1

[6] = post-labeling sodium bisulfite (1 mg/ml, pH 5.5)
[7] = post-labeling sodium sulfite (1 mg/ml, pH 7.4)
[8] = NO ASCORBATE during labeling, 20 mCi Re-188
[9] = PLUS ASCORBATE: 400 μg ascorbic acid introduced along with the Re-188, 20 mCi
[10] = post-labeling Ascorbate for Injection, USP
[11] = post-labeling Ascorvit formulation
[12] = post-labeling ascorbate (50 mg/ml, pH 6.0)

Substance: Re-188-RC-160: RC-160, cyclic somatostatin analogue D-Phe-Cys-Tyr-D-Trp-Lys-Val-Cys-Trp-NH2, radiolabeled with 188Re using stannous kit
- % of total radioactivity assayed, 80-100% ethanol fraction ([1]; post-labeling SALINE): 4.0%
- % of total radioactivity assayed, 40-60% ethanol fraction [1, 6]: 94.0%
- % of total radioactivity assayed, 80-100% ethanol fraction [1, 6]: 1.8%
- % of total radioactivity assayed, retained on column [1, 6]: 3.3%
- % of total radioactivity assayed, 40-60% ethanol fraction [1, 7]: 35.8%
- % of total radioactivity assayed, 80-100% ethanol fraction [1, 7]: 3.8%
- stabilization post-labeling ([2]; 50 mg/ml ascorbate compared with 250 mg/ml of ascorbate): yielded the same results
- free rhenium in HPLC profile ([2]; 30 hours post-labeling, 65 mCi of 188Re, ascorbate added after labeling): very little free rhenium could be found
- stability post-labeling ([2]; ascorbate not added, TLC, confirmed by RP-HPLC): stable for only up to two hours post-labeling
- stability post-labeling (uncoupling of 188Re from the peptide) ([2]; post-labeling addition of ascorbate): essentially eliminate the uncoupling and stabilize
- stabilization post-labeling ([2]; sodium sulfite (1 mg/ml pH 7.4), sodium bisulfite (1 mg/ml, pH 5.5), or mixtures of ascorbate with sodium sulfite, sodium bisulfite or EDTA): also effective in stabilizing
- Re-peptide bond strength (cysteine displacement) [3]: not altered
- % of total radioactivity [4, 8]: 2.1%
- % of total radioactivity, 10% ethanol [4, 8]: 0.9%
- % of total radioactivity, 85% ethanol [4, 8]: 97.0%
- % of total radioactivity [4, 9]: 1.4%
- % of total radioactivity, 10% ethanol [4, 9]: 52.4%
- % of total radioactivity, 85% ethanol [4, 9]: 46.2%
- % of total radioactivity assayed, 0-20% ethanol fraction [5, 10]: 0.7%
- % of total radioactivity assayed, 40-60% ethanol fraction [5, 10]: 91.5%
- % of total radioactivity assayed, 80-100% ethanol fraction [5, 10]: 1.3%
- % of total radioactivity assayed, retained on column [5, 10]: 6.6%
- % of total radioactivity assayed, 0-20% ethanol fraction [5, 11]: 1.0%
- % of total radioactivity assayed, 40-60% ethanol fraction [5, 11]: 94.0%
- % of total radioactivity assayed, 80-100% ethanol fraction [5, 11]: 1.8%
- % of total radioactivity assayed, retained on column [5, 11]: 3.3%
- % of total radioactivity assayed, 0-20% ethanol fraction ([5]; post-labeling SALINE): 0.8%
- % of total radioactivity assayed, 40-60% ethanol fraction ([5]; post-labeling SALINE): 85.4%
- % of total radioactivity assayed, retained on column ([5]; post-labeling SALINE): 9.7%
- % of total radioactivity assayed, 0-20% ethanol fraction [5, 12]: 0.7%
- % of total radioactivity assayed, 40-60% ethanol fraction [5, 12]: 96.4%
- % of total radioactivity assayed, 80-100% ethanol fraction [5, 12]: 0.9%
- % of total radioactivity assayed, retained on column [5, 12]: 1.8%
- % of total radioactivity assayed, 0-20% ethanol fraction [5, 6]: 1.0%
- % of total radioactivity assayed, 0-20% ethanol fraction [5, 7]: 7.0%
- % of total radioactivity assayed, retained on column [5, 7]: 3.5%
